Experimental data as given in patent US20210147504A1.

Target: rat ANP receptor (NPR-A) (rat) (UniProt P18910)
Assay: cell-based or functional assay

Chain of rat ANP receptor (NPR-A) (rat) (P18910 29-1057): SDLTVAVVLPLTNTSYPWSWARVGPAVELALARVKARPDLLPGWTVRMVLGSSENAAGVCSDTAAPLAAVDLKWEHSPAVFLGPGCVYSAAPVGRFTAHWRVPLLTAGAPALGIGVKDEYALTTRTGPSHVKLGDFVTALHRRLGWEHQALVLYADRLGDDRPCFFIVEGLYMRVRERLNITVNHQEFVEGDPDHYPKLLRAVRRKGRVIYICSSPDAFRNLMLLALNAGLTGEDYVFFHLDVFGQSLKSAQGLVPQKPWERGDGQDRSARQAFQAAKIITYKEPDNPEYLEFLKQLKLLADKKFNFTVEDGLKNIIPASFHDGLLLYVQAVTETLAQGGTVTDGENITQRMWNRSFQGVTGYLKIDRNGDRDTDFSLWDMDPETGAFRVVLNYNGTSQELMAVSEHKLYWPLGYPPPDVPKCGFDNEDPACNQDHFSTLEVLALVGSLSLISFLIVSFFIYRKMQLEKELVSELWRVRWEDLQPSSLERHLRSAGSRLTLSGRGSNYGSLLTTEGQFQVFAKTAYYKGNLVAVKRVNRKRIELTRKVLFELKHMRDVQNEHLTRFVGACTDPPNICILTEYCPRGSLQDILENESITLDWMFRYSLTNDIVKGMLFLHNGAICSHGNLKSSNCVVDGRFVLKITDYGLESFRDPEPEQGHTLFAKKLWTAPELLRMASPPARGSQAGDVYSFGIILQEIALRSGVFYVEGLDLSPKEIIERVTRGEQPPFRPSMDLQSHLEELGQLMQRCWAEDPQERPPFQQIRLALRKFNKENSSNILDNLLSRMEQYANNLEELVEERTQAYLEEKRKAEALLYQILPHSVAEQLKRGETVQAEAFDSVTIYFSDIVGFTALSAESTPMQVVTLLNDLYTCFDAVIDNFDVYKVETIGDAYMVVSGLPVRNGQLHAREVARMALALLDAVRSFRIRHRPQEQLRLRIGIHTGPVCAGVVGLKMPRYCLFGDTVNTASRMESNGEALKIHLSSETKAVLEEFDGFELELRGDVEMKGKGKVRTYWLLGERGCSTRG

- EC50, fluorescence signal of rat NPR-A cGMP reporter CHO cell line (GCaMP6/CNGA2): 2.9 nM
Substance: BNP (Bachem, H-5968) (peptide)
